The values that follow come from the RNAGym collection of RNA variant scans (doi:10.1073/pnas.2313332121).

To fix the notation:
B1: TPR 5TU (parent)
chain: GGAUCUUCUCGAUCUAACAAAAAAGACAAAUCUGCCACAAAGCUUGAGAGCAUCUUCGGAUGCAGAGGCGGCAGCCUUCGGUGGCGCGAUAGCGCCAACGUUCUCAACUAUGACACGCAAAACGCGUGCUCCGUUGAAUGGAGUUUAUCAUG

Variants at the floor of the assay were thinned out.

Variants of B1 are the subject of this series. Put plainly: polymerase ribozyme fitness, log enrichment relative to wild type (log ratio); higher = more active; in vitro selection for triplet polymerase activity. The method in brief: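 After PCR construction and transcription, each subunit's mutant library from a heterodimeric triplet polymerase ribozyme was annealed with a biotinylated primer, the partner subunit and triplets. Incubation was frozen, at −7 °C, and extended constructs were gel-excised, bound to streptavidin beads and amplified by RT-PCR, in one selection round done in triplicate. Fitness is the logarithm of a genotype's enrichment divided by that of the wild type, from inverse-variance-weighted replicate averages of Illumina-sequenced inputs and outputs. The base of the logarithm is 2, and genotypes needed ≥10 input reads and ≥1 read per output.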
Turning to A47U U55A C95A A122G, the “polymerase ribozyme fitness (log ratio)” value was -0.42.

As for A47G C87G C103U A110G, the “polymerase ribozyme fitness (log ratio)” value is not above -4.2.

As for C38A C63A U90A G124U, the “polymerase ribozyme fitness (log ratio)” value is not above -4.2.

With U31C A64G G84A A91U C99A U135C G141C, the “polymerase ribozyme fitness (log ratio)” value is not above -4.2.

For the variant A49C G71C, the “polymerase ribozyme fitness (log ratio)” value was not above -4.2.

In the case of C85U C118U G141U, the “polymerase ribozyme fitness (log ratio)” value came out at 0.748. The value for A60G C63U G94A C114U was -2.5; that for A17G C27A A29U U55A A64G C79A C93U A98G G100U G136A was not above -4.2; that for A30G C54U A91U U102G U109G A110G G133C A147U was not above -4.2.

In the case of C18G C57U G59A G80A G86U, the “polymerase ribozyme fitness (log ratio)” value was -2.45.

As to A24U C96G G143U A147U, the “polymerase ribozyme fitness (log ratio)” value is -3.7.

With C5A A20C A41G C93A A147C, the “polymerase ribozyme fitness (log ratio)” value is -1.66. Consider G46C G59A A66G G83A A120U C123G, for which the “polymerase ribozyme fitness (log ratio)” value is not above -4.2. The value for G58A G80U U151G was not above -4.2; that for A40C G65A A73U A98U was not above -4.2; that for C38U G68U G94A was not above -4.2. The value for A91G C96U U101C U144G was -2.18; that for C10G G42A C57U C85A C108U was not above -4.2. As to G46U A138C, the “polymerase ribozyme fitness (log ratio)” value was -3.8. Consider C57U U145A, for which the “polymerase ribozyme fitness (log ratio)” value was 0.046. The value for A12U C18A C51A U55G C87U G94A G143U was not above -4.2; that for A29U C95A U134C G140C was not above -4.2; that for C43A G92C was not above -4.2. The value for A39C C96U was -2.7; that for A19C C95A C96U C125G C149U was not above -4.2; that for C54A A64G C76G C93U A138C was not above -4.2. On to A12C C43A C57A G84A U139G A147U, for which the “polymerase ribozyme fitness (log ratio)” value was not above -4.2. The value for C51G A60G A73G C123G was -3.71; that for G48A C51A U56A G62C was -3.16; that for A21C G25C U53A G74A C87G was not above -4.2.

As for A40G A41C, the “polymerase ribozyme fitness (log ratio)” value was -1.36. The value for U55A G83U A137G was -2.28; that for G67C G68C C118U A120G was not above -4.2; that for U45A U61A was -4.16.

U13A A37G C93U: the “polymerase ribozyme fitness (log ratio)” value is -3.74. G80A C85A A138G: the “polymerase ribozyme fitness (log ratio)” value was -3.67. Turning to A16C A22U A26C A41U A52G C57U G58C G68U A91C C95G U139C G140A, the “polymerase ribozyme fitness (log ratio)” value was not above -4.2.

In the case of A60G C69U A122C U135C, the “polymerase ribozyme fitness (log ratio)” value is -3.94. Turning to C5G C108U, the “polymerase ribozyme fitness (log ratio)” value was -3.65. The value for G128U U139C was -3.96; that for U15A A22C C72A C87G G88U G133C was not above -4.2; that for A40C C57G C85A U102A was not above -4.2. The value for A47C A115C U144G was -0.866; that for C5A A24U A40C A52C was -0.908; that for A24C G59U A73G A150U was -3.13. As to C14G C96G, the “polymerase ribozyme fitness (log ratio)” value was -2.81. For G50A A150G, the “polymerase ribozyme fitness (log ratio)” value was -3.11. The value for C8A U9C C18A A19G G58U G84A U144C A147C was not above -4.2; that for G50C U53A was -3.26; that for A73G C75U U77C A89U G136A C149G was not above -4.2. The value for U33C U53G U77A G143C was not above -4.2. The value for C5A C93U A98G C103A was -3.31; that for A24U A39G C51U C57A C85U C129G was not above -4.2. In the case of C5U C69A, the “polymerase ribozyme fitness (log ratio)” value is -2.55.

As to C27U U55G C85U A89U, the “polymerase ribozyme fitness (log ratio)” value is -2.33.

As to U101C U102G A106G, the “polymerase ribozyme fitness (log ratio)” value is -1.84. On to C38A G80A G94A A97G C99G C131U G133C, for which the “polymerase ribozyme fitness (log ratio)” value was not above -4.2. The value for A98G G140C was -3.59; that for C14G A30G A52C C72A C95G C103G was not above -4.2; that for A19U A40G A110C was not above -4.2.

For the variant A22G C87U, the “polymerase ribozyme fitness (log ratio)” value is -0.258.

In the case of U6G A23C G88C A97U, the “polymerase ribozyme fitness (log ratio)” value is not above -4.2.

In the case of A3G C35U C96A A106C A138C A142G, the “polymerase ribozyme fitness (log ratio)” value is not above -4.2. The value for A30U U53G G84A was -4.15; that for U31A A91G A106G G117A A119U U146C was -1.71.

On to A52U U82G, for which the “polymerase ribozyme fitness (log ratio)” value is -1.46. With A3U U90C A97G A150G, the “polymerase ribozyme fitness (log ratio)” value is -3.73. For C85G G141U, the “polymerase ribozyme fitness (log ratio)” value was -0.649. The value for C36U C93A A110C U139A was not above -4.2. The value for G83A C87U A106C C125G G152A was -3.25; that for G86A A89G was -3.55; that for C5G U53G G92A C103A U111G A120U was not above -4.2. For the variant A49G A115U, the “polymerase ribozyme fitness (log ratio)” value was -2.35. As to C36G A39U A40U A60G U104A G136U G141A, the “polymerase ribozyme fitness (log ratio)” value was not above -4.2. The value for A17C A39G U44G C63A A73G A113G A121U G141A was not above -4.2; that for U31A A49C U82G G84C U127G C131U U151A was not above -4.2; that for C5G C96G G141U was -0.469. The value for U44A G65C A89U was not above -4.2; that for C27U A47U C96A C103A G117A was not above -4.2.

As to G81C G112A A137U U148A, the “polymerase ribozyme fitness (log ratio)” value is not above -4.2. The value for U15G G48A C116U G152A was -2.5; that for G46U C72U C87U was -1.01. The value for C27U C96A C105G was -2.96.
